{
  "source": "IntAct's records for PubMed 16628219",
  "parents": {"B1": {"name": "Gag polyprotein (Moloney murine leukemia virus (isolate Shinnick) (MoMLV)), P03332 (parent)", "chain": "MGQTVTTPLSLTLGHWKDVERIAHNQSVDVKKRRWVTFCSAEWPTFNVGWPRDGTFNRDLITQVKIKVFSPGPHGHPDQVPYIVTWEALAFDPPPWVKPFVHPKPPPPLPPSAPSLPLEPPRSTPPRSSLYPALTPSLGAKPKPQVLSDSGGPLIDLLTEDPPPYRDPRPPPSDRDGNGGEATPAGEAPDPSPMASRLRGRREPPVADSTTSQAFPLRAGGNGQLQYWPFSSSDLYNWKNNNPSFSEDPGKLTALIESVLITHQPTWDDCQQLLGTLLTGEEKQRVLLEARKAVRGDDGRPTQLPNEVDAAFPLERPDWDYTTQAGRNHLVHYRQLLLAGLQNAGRSPTNLAKVKGITQGPNESPSAFLERLKEAYRRYTPYDPEDPGQETNVSMSFIWQSAPDIGRKLERLEDLKNKTLGDLVREAEKIFNKRETPEEREERIRRETEEKEERRRTEDEQKEKERDRRRHREMSKLLATVVSGQKQDRQGGERRRSQLDRDQCAYCKEKGHWAKDCPKKPRGPRGPRPQTSLLTLDD"}, "B2": {"name": "Gag polyprotein (Moloney murine leukemia virus (isolate Shinnick) (MoMLV)), P03332 (parent)", "chain": "B1 chain", "partner": "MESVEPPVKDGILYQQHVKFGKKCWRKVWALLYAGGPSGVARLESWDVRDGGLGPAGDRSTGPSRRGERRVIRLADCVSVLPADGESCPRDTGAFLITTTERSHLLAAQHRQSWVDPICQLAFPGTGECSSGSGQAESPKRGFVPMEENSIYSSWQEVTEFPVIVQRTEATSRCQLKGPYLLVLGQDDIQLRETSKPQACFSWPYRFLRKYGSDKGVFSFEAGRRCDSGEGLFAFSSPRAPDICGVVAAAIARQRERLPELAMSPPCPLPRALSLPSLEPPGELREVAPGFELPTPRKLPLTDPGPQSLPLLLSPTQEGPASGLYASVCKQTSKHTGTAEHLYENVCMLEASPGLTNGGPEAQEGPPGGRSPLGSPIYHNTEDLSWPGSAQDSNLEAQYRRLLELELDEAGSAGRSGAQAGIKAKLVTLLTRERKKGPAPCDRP"}, "B3": {"name": "Ras GTPase-activating-like protein IQGAP1 (Mus musculus), Q9JKF1 (parent)", "chain": "MSAAEEVDGLGVVRPHYGSVLDNERLTAEEMDERRRQNVAYEYLCHLEEAKRWMEACLGEDLPPTTELEEGLRNGVYLAKLGNFFSPKVVSLKKIYDREQTRYKATGLHFRHTDNVIQWLNAMDEIGLPKIFYPETTDIYDRKNMPRCIYCIHALSLYLFKLGLAPQIQDLYGKVDFTEEEINNMKIELEKYGIQMPAFSKIGGILANELSVDEAALHAAVIAINEAIDRRVAADTFTALKNPNAMLVNLEEGLAPTYQDVLYQAKQDKMTNAKNRTENSDRERDVYEELLTQAEIQGNVNKVNTSSALANISLALEQGCAVTLLKALQSLALGLRGLQTQNSDWYMKQLQSDLQQKRQSGQTDPLQKEEVQAGVDAANSAAQQYQRRLAAVAAINAAIQKGIAEKTVLELMNPEAQLPQVYPFAADLYQKELATLQQQSPEHSLTHPELTVAVEMLSSVALINRALESGDMTTVWKQLSSSVTGLTNIEEENCQRYLDELMKLKAQAHAENNAFITWNDIQACVDHVNLVVHEEHERILAIGLINEALDEGDAQKTLQALQIPAAKLEGVLAEVAQHYQDTLIRAKREKAQETQDESAVLWLDEIQGGIWQSNKDTQEAQRFALGISAINEAVDSGDVGRTLSALRSPDVGLYGVIPECGETYQSDLAEAKKKRLAAGDNNSKWVKHWVKGGYHYYHNLETQAGGWAEPPDFVQNSVQLSREEIQSSISGVTAAYNREQLWLANEGLITKLQACCRGYLVRQEFRSRMNFLKKQIPAITCIQSQWRGYKQKKAYQDRLAYLHSHKDEVVKIQSLARMHQARKRYRDRLQYFRDHINDIIKIQAFIRANKARDDYKTLINAEDPPMIVVRKFVHLLDQSDQDFQEELDLMKMREEVITLIRSNQQLENDLNLMDIKIGLLVKNKITLQDVVSHSKKLTKKNKEQLSDMMMINKQKGGLKALSKEKREKLEAYQHLFYLLQTNPTYLAKLIFQMPQNKSTKFMDSVIFTLYNYASNQREEYLLLRLFQTALQEEIKSKVDQIQEIVTGNPTVIKMVVSFNRGARGQNALRQILAPVVKEIMDDKSLNIKTDPVDIYKSWVNQMESQTGEASKLPYDVTPEQALSHEEVKTRLDNSIRNMRAVTDKFLSAIVSSVDKIPYGMRFIAKVLKDSLHEKFPDAGEDELLKIIGNLLYYRYMNPAIVAPDAFDIIDLSAGGQLTTDQRRNLGSIAKMLQHAASNKMFLGDNAHLSIINEYLSQSYQKFRRFFQVACDVPELQDKFNVDEYSDLVTLTKPVIYISIGEIINTHTLLLDHQDAIAPEHNDPIHELLDDLGEVPTIESLIGESCGNSNDPNKEALAKTEVSLTLTNKFDVPGDENAEMDARTILLNTKRLIVDVIRFQPGETLTEILETPATNEQEAEHQRAMQRRAIRDAKTPDKMKKSKPMKEDNNLSLQEKKEKIQTGLKKLTELGTVDPKNRYQELINDIAKDIRNQRRYRQRRKAELVKLQQTYSALNSKATFYGEQVDYYKSYIKTCLDNLASKGKVSKKPREMKGKKSKKISLKYTAARLHEKGVLLEIEDLQANQFKNVIFEIGPTEEVGDFEVKAKFMGVQMETFMLHYQDLLQLQYEGVAVMKLFDRAKVNVNLLIFLLNKKFYGK"}},
  "data": [
    {"variants_of": "B1", "conditions": "with iqga1_mouse Iqgap1, Q9JKF1", "values": [
      {"variant": "Q63A;V64A;K65A", "effect of a mutation on the interaction": "disrupting interaction"}
    ]},
    {"variants_of": "B1", "conditions": "with iqga1_mouse Iqgap1, Q9JKF1", "remark": "another data set of the same source", "values": [
      {"variant": "L60A;I61A;T62A", "effect of a mutation on the interaction": "disrupting interaction"}
    ]},
    {"variants_of": "B2", "conditions": "with dok3_mouse Dok3, Q9QZK7", "values": [
      {"variant": "F69A;S70A;P71A", "effect of a mutation on the interaction": "disrupting interaction"}
    ]},
    {"variants_of": "B2", "conditions": "with dok3_mouse Dok3, Q9QZK7", "remark": "another data set of the same source", "values": [
      {"variant": "G72A;P73A;H74A", "effect of a mutation on the interaction": "disrupting interaction"}
    ]},
    {"variants_of": "B2", "conditions": "with dok3_mouse Dok3, Q9QZK7", "remark": "another data set of the same source", "values": [
      {"variant": "L89A;F91A;D92A", "effect of a mutation on the interaction": "disrupting interaction"}
    ]},
    {"variants_of": "B3", "conditions": "with gag_mlvms gag", "values": [
      {"variant": "N1514A;S1515A;K1516A", "effect of a mutation on the interaction": "disrupting interaction"}
    ]}
  ]
}
